Measured values as given in the domain aggregation screens of Martell et al. (2025).

Experiment: soluble fraction after stress (log2 fold change); higher = more stays soluble; pooled small domains, quantitative proteomics
Settings: stress: 50 degC
In short: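 The stress applied to every library was 50°C. These custom libraries of small protein domains were pooled and measured at high throughput with quantitative proteomics as the read-out. Aggregation propensity is expressed as the base-two logarithm of the fold change in how much of each protein remains soluble. The higher the value, the more of that protein stays in solution.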

“HMGPTGGLTPHIAIADKRASEAIEFYKQAFGAVEQVRMPAEDGVRLMHAHLLVNGSSLMMHDDFPEYSGQ” and “HMKDIIVDPQGQYNHPGVPTRIPSSDITMKGVGYPVLGIADNGQKQMMQPGQDYKFPGAKYVDEYPQM” are within 0.2 log units of each other in “soluble fraction (log2)” value: 0.0526 for the first, 0.137 for the second.

Compared with “HMINFSKNIISDTTSIKEAIEILNIISGRDNHILFVLNDKRQLIGTLSDGDVRRGMLASKTISQSVTEVM”, “HMSETEWGEIYRKVMAAGLIPARSVRERLLALPSIEPLLQAAEAAGSKGMLDETLLDSLLSKT” is higher in “soluble fraction (log2)” value: -0.351 for the first, 0.134 for the second.

“HMVLLGAAIRELRIQKGITIEELAEMSGLSTGLISKIERDLGNPSISSLRKISRALGVPTAFFFA” and “HMTMTIEITVNGKTKTLVAELSLADLLRDLGMTKGRIAVELNGHIVPRSQFSSKTISNLDSIEIVQ” are within 0.2 log units of each other in “soluble fraction (log2)” value: -3.07 for the first, -3.23 for the second.

Compared with “HMPYSKIALQISHLLKSHGVPLSNKQIYEKLINDFQLSINYSNLTNNILPRMNSDSSINVEKVTRGYWQY”, “HMDVLTARENEVLQLLAKGMSNKEIASVLVITEKTVKAHVSSILSKLNLSDRTQAALYAVKNGI” is higher in “soluble fraction (log2)” value: -0.634 for the first, -0.151 for the second.

Going from “HMKDGAKYFQLFGLLKNEINRGIYQSGQKIPGENELAEKYGMSRQTVRQALSLLEQESLIERRQGSGTYVR” to “HMNKDEFLNELKSYLSILEDEEQADILEEYTQHIDMKISTGLSEAEAIRDFGNVSELAAQILEAY”, the “soluble fraction (log2)” value falls from 0.108 to -0.222.

Compared with “HMETYEFNITDKEQTGMRVDKLLPELNSDWSRNQIQDWIKAGLVVANDKVVKSNYKVKLNDHIVVTEKEV”, “HMRDGHEQLQGVLSAIKFHQANFLIGVLDDGTTVKGNMLSPQVGLEYTFRGRRERHPRWGEQFAFMDYRV” is lower in “soluble fraction (log2)” value: 0.26 for the first, -2.76 for the second.

Compared with “HMTSDYEPSEKDEKAVIGIAFLRNTDVYDVDIDKAEAIKALKANNDIYQKFVKFFPFVKLPSLYDDFQ”, “HMVAESGLPPAFRSTWRHIMQTRGAQLDVLAMRTGTDAASLQKQLHAMELGGWVRRMPGGWYVPLK” is lower in “soluble fraction (log2)” value: -0.00582 for the first, -0.736 for the second.

First: HMNEIDDYDIQLLEYLSKGVSQEAMESVFKQAGITPNSKSTIEKRISKLKIYFKALNTTHLVSITKDLGL
Second: HMAKNIEVPNLVGSTISVARNDLKQLGLHVIVRDSVWSEDKKIDTILEQFPEPGKKLKPEGVVQVVVSI
The “soluble fraction (log2)” value of the first is lower: -0.642 for the first, -0.408 for the second.

First: HMKLEKKWIEAVEKYRRYVLSTGIKHVQKPIEFENFRLGQWYADVRQSYRRGTLSKEKLLEIREINPDFPN
Second: HMANPRLEYFLSNITPDWNEFSPELKNQLLIENADPYKLEQYILQVSPDMYIEEQNAPGTVRQMAGDITG
The “soluble fraction (log2)” value of the first is lower: -0.276 for the first, 0.09 for the second.

“HMHFENEETFVLPLVREGFSEQQQLEMVDRLLFDANTDNPRWIIDWMASELPSTQRELLLDLEKRLAEVRS” and “HMRKPLDQSWVPDDDAMKILTNSGIEKEFIKNEIPEFILYWSDKGEISDSWNTKFISQIRRQWAKNQ” are within 0.2 log units of each other in “soluble fraction (log2)” value: -0.117 for the first, -0.222 for the second.

“HMQESTPGEGYKWREDVLLRVMSQNGIDESLRDEFVRHAVNYDIDDNMYLKKAEIESAAEAWVLENS” and “HMNTDALIGKTGYVTEIVGERHGRIQFSGGEWSARTEGVSIPVGAEVRVDRIDGATAVVSAV” are within 0.2 log units of each other in “soluble fraction (log2)” value: -0.0581 for the first, 0.115 for the second.

First: HMLGFELVGIRGNNPESTIIILERDDYRLVEQGQNINSSVIFSHIDGSRAYFFDGQTYTFLDI
Second: HMNEMIFNQKKIGQFFMNPETNSPMIYPLELGHKMKIIELKNGWYNVTDEKTGLNGWVKEEDFGVTKPLDS
The “soluble fraction (log2)” value of the first is lower: -2.95 for the first, -0.205 for the second.

“HMVDISLSDRELEVLRLLAMGLSNADISRRLYLSEGTIRNYMSGIFSKLNVSDRTQAVVIALREGLVNL” and “HMINIDESIDESLSEDDAVLDLLERASASFTKAQEALLEGDLGRYQTLIEQADRLVAKALELLDEKN” are within 0.2 log units of each other in “soluble fraction (log2)” value: -0.48 for the first, -0.457 for the second.

Compared with “HMKKDLATYAYEHIKQMVIDRELMPGERIQQEVLARELGISRTPLVTALNRLASENLVELEANKGFSVRRF”, “HMKPQIRRHEKITALVREHGFMSVEQLARELEVTPQTIRRDIGILSAENVLRRYHGGAALGD” is lower in “soluble fraction (log2)” value: -0.0386 for the first, -0.586 for the second.

First: HMGVPVTAPMPGKVLKVTVSVGAAVKNGDLVLVLEAMKMENEIFATANGVVKEIRSREGDTVNSGDVMMVI
Second: HMRPLTPLEKLTPDADGKYYHIVQSGETLSWIAKLYETTAEKLQAWNNLFSSDIFPNQKLLLQVTPP
The “soluble fraction (log2)” value of the first is lower: -0.533 for the first, 0.0722 for the second.
